Experimental data: the supplement of paper PMC10567573

B1: MYBL2 (parent)
chain: FPNRTDQQCQYRWLRVLNPDLVKG
B2: FAM116A (parent)
chain: TVHEVDIFRCFCPVFLHSQMLWEL

Variants of: B1
Test: protein stability index of a GFP-peptide fusion (GPS, HEK-293T) (PSI 1-6); higher = more stable
Conditions: c terminus: a fixed tail appended
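Also: lentivirally expressed fusions sorted by FACS into six bins by GFP to DsRed ratio, PSI derived from sequencing read proportions per bin multiplied by bin number.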

Protein stability index of substitutions, site by site:
P2: E 2.67; M 1.63; G 1.88; C 1.84; R 2.49; H 1.86; T 1.81; Y 2.2; V 3.52; N 2.06; K 2.3; A 2.17; L 2.62; F 1.69; Q 1.93; I 1.13; D 2.06; W 1.61; S 2.3
L14: E 2.28; R 2.44; K 2.88; W 1.4; D 2.22; Q 2.08; N 2.46; T 1.64; A 3.17; M 2.12; H 2.67; G 1.48; I 2.03; V 2.21; S 2.35; P 2.05; F 1.51; C 2.02
F1: N 2.47; M 2.37; A 2.54; R 2.79; H 2.44; K 2.14; Y 1.95; I 2.6; S 2.51; P 3; G 3.23; T 2.75; L 2.08; D 3.24; V 2.31; C 2.24; W 2; Q 2.76; E 2.56
Q7: L 1.69; P 2.17; F 1.67; I 2.07; M 1.96; Y 1.61; V 1.85; G 2.96; H 2.05; K 1.8; D 2.3; E 2.15; S 1.82; A 2.53; T 1.72; W 2.29; N 2.38; R 2.63; C 1.94
C9: A 2; H 2.88; L 2.26; R 2.85; Y 2.49; Q 2.24; W 2.51; I 2.16; D 2.19; V 2.05; T 2.9; E 1.86; G 1.97; N 2.18; P 2.5; K 2.76; S 2.45; M 2.45; F 2.38
Q10: R 1.52; E 2.23; Y 1.79; D 2.04; T 1.93; P 2.18; N 1.76; A 1.45; L 2.34; W 2.4; K 1.88; H 2.35; V 1.81; F 1.75; I 1.79; S 2.48; G 1.48; M 1.47; C 2.83
R4: W 2.23; D 2.27; N 1.94; K 2.11; C 1.51; Y 1.98; T 2.02; L 2.65; M 2.2; I 1.56; E 2.51; F 2.22; A 1.99; P 2.64; H 2.47; V 1.96; Q 2.19; S 1.95; G 1.74
D6: N 1.8; S 1.89; C 1.45; T 1.84; V 1.98; R 1.41; I 2.07; G 1.51; Y 1.61; H 1.94; F 2.36; Q 2.91; K 2.06; M 1.27; E 1.61; W 1.75; P 1.81; A 1.7; L 1.97
N3: P 1.93; C 1.56; A 2.27; L 1.94; H 1.98; M 1.72; Y 1.87; E 1.96; K 1.77; S 1.78; D 1.83; T 1.91; G 1.77; R 2.1; W 1.31; V 1.91; Q 2.04; F 1.63; I 1.82
W13: Y 2.26; E 3.26; K 3.05; P 3.71; C 2.01; N 2.81; G 3.56; A 2.59; H 2.56; V 2.39; F 2.75; S 3.03; L 2.08; T 2.52; D 2.98; I 1.91; Q 3.1; M 2.27
T5: D 1.98; H 1.74; Y 1.95; W 2; I 2.29; Q 1.76; A 2.73; V 1.8; E 2.29; G 1.53; C 1.57; P 2.05; S 1.86; L 1.64; M 2.33; N 2.01; K 2.29; R 1.73; F 1.49
Y11: N 2.39; H 2.24; D 2.91; I 2.04; Q 1.85; C 2.29; A 2.16; K 2.23; W 1.66; F 1.95; L 2.1; V 2.02; M 2.12; T 2.36; P 2.13; S 2.11; G 2.31; E 3.11; R 1.97
Q8: P 2.09; V 2.05; K 1.97; D 2.09; H 2.37; N 2; T 1.82; S 1.83; F 1.71; C 1.42; Y 1.88; A 1.38; W 1.97; R 1.96; E 2.01; L 1.68; M 1.83; G 1.34; I 2.01
R12: C 2.55; T 1.66; M 1.96; F 2.25; H 3.76; N 1.69; L 1.45; K 2.25; A 2.75; G 1.59; I 1.97; W 1.95; Y 2.46; S 2.25; Q 2.21; D 1.19; E 1.74; P 1.96

Variants of: B2
Test: as above
Conditions: c terminus: a fixed tail appended

Protein stability index, by site and new letter:
H17: M 3.23; P 2.86; S 3.21; R 2.65
F15: R 4.41; K 2.7; Y 3.31; D 1.44; I 3.86; H 2.83; V 1.94
W22: K 1.13; F 2.22; M 3.69; G 3.08; R 3.65; T 2.11; H 1.52
M20: P 1.4; Q 2.97; I 3.16; N 3.79; K 1.68; F 2.05; Y 3.21; V 2.62; L 3.06
S18: E 1.56; D 2.15; N 2.99; T 3.1; W 2.85; L 2.89; Y 4.23; F 2.77; G 2.83; Q 2.17
Q19: W 2.73; I 1.82; P 4.4; S 2.74; A 3.23; C 2.22; T 1.66
L21: I 3.87; Q 3.05; T 3.12; C 3.04; R 1.77
E23: L 3.65; Y 2.38; R 1.77; H 3.28; K 3.53; W 2.4; I 3.36; N 3.34; S 2.37
L16: P 2.89; G 2.97; C 3.78; R 3.17; N 3.13; E 1.69
L24: Y 3.09; W 1.83; C 4.01; G 3.33; S 2.18; Q 1.47; P 1.69
